According to patent publication US20200262920A1 (AMPHIVENA THERAPEUTICS, published 2020):
Residue numbers refer to the chain shown, from its start. Values joined by “and” are separate entries in the source; they are usually repeats but may differ in a detail not shown here. Equal values may be shown once. Blank lines part the entries; values can stand above or below the binder they belong to.

Tests used:
human CD3 [1] = molecular target: T1, human CD3 (human, UniProt P07766 23-207; P09693 23-182; P04234 22-171; P20963 22-164); experiment: cell-based or functional assay
human CD33 [2] = molecular target: T2, human CD33 (human, UniProt P20138 18-364); experiment: flow cytometry, HL-60 cells
T2 construct: whole, on cells; also called huCD33; CD33 on HL-60, KG-1, KG-1a, U-937 cells

human CD33 [3] = molecular target: T2, human CD33; experiment: flow cytometry titration, U-937 cells
Procedure, shortened: (§1)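 Cells titrated with CD33/CD3 2×2 T-cell engagers, detected via anti-His then FITC anti-mouse IgG on ice, with PI exclusion of dead cells. Background-subtracted mean fluorescence fit to one-site binding for KD; cross-reactivity ratio from KDs on CHO cells expressing recombinant cynomolgus or human CD33.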

human CD33 [4] = molecular target: T2, human CD33; experiment: flow cytometry titration, HL-60 cells
Procedure, shortened: as §1

human CD33 [5] = molecular target: T2, human CD33; experiment: cell-based or functional assay
cynomolgus CD33 = molecular target: T3, cynomolgus CD33 (cynomolgus, UniProt A0A7N9ICR5 17-359); experiment: ratio of KD by flow cytometry on CHO cells expressing cynomolgus CD33 vs human CD33
T3 construct: whole, on cells; also called cynoCD33; cyno CD33
Description: Cells were incubated with 100 μL of serial dilutions of CD33/CD3 2×2 T-cell engagers. After washing three times with FACS buffer the cells were incubated with 0.1 mL of 10 μg/mL mouse monoclonal anti-His antibody in the same buffer for 45 min on ice. After a second washing cycle, the cells were incubated with 0.1 mL of 15 μg/mL FITC-conjugated goat anti-mouse IgG antibodies under the same conditions as before. As a control, cells were incubated with the anti-His IgG followed by the FITC-conjugated goat anti-mouse IgG antibodies without anti-CD33 2×2 T-cell engagers. The cells were then washed again and resuspended in 0.2 mL of FACS buffer containing 2 μg/mL propidium iodide (PI) in order to exclude dead cells. The fluorescence of 1×10⁴ living cells was measured using a Beckman-Coulter FC500 MPL flow cytometer using the MXP software (Beckman-Coulter, Krefeld, Germany) or a Millipore Guava EasyCyte flow cytometer using the Incyte software (Merck Millipore, Schwalbach, Germany). Mean fluorescence intensities of the cell samples were calculated using CXP software (Beckman-Coulter, Krefeld, Germany) or Incyte software (Merck Millipore, Schwalbach, Germany). After subtracting the fluorescence intensity values of the cells stained with the secondary and tertiary reagents alone the values were used for calculation of the KD values with the equation for one-site binding (hyperbola) of the GraphPad Prism (version 6.00 for Windows, GraphPad Software, La Jolla Calif. USA).
CD3 binding affinity and crossreactivity were evaluated in titration and flow cytometric experiments on CD3⁺ Jurkat cells (provided by Dr. Moldenhauer, DKFZ Heidelberg; human acute T-cell leukemia) and the cynomolgus CD3⁺ HSC-F cell line (JCRB, cat.:JCRB 1164). […] The KD ratio of crossreactivity was calculated using the KD values determined on the CHO cell lines expressing either recombinant human or recombinant cynomolgus antigens.

human CD33 [6] = molecular target: T2, human CD33; experiment: flow cytometry titration, KG-1 cells
Procedure, shortened: as §1

human CD3 [7] = molecular target: T1, human CD3; experiment: flow cytometry, human T-cells
human CD3 [8] = molecular target: T1, human CD3; experiment: flow cytometry titration, T cells (human CD3+)
human CD33 [9] = molecular target: T2, human CD33; experiment: cell-based or functional assay; remark: listed apart in the source
human CD33 [10] = molecular target: T2, human CD33; experiment: cell-based or functional assay; remark: listed apart in the source
human CD33 [11] = molecular target: T2, human CD33; experiment: cell-based or functional assay; remark: listed apart in the source

T2 sequence (P20138 18-364): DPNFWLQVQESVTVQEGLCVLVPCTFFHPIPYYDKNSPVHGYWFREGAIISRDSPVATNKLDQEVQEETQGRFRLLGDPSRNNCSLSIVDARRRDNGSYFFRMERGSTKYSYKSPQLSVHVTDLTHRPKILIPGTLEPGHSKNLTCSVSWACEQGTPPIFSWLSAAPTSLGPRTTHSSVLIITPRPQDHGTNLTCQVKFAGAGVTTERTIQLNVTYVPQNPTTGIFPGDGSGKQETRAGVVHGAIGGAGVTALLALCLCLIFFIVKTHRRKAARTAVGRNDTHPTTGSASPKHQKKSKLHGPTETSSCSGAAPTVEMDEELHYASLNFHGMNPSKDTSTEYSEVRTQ
T1 sequence (P07766 23-207, chain 1 of 4): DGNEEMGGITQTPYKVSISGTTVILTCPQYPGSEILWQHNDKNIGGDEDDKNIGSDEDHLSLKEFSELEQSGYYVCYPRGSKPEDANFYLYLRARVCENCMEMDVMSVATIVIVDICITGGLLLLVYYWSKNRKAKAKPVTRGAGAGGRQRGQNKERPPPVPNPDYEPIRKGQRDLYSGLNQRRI
T1 sequence (P09693 23-182, chain 2 of 4): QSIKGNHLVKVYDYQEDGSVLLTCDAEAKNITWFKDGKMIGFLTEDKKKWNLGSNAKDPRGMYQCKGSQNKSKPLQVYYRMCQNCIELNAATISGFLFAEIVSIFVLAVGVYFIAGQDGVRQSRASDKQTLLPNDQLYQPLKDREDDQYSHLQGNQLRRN
T1 sequence (P04234 22-171, chain 3 of 4): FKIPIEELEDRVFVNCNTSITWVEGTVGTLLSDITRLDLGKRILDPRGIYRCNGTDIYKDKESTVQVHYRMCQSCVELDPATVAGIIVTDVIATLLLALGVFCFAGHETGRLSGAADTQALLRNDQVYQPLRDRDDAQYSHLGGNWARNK
T1 sequence (P20963 22-164, chain 4 of 4): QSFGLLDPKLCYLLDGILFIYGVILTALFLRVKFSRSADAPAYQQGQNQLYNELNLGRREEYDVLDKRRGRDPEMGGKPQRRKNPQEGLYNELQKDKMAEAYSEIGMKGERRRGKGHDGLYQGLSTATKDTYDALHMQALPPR

B1: CD33/CD3 2×2 T-cell engager 21 (bispecific antibody)
chain: DIQMTQSPSSLSASVGDRVTITCRSSTGAVTTSNYANWVQQKPGKAPKALIGGTNKRAPGVPSRFSGSLIGDKATLTISSLQPEDFATYYCALWYSNLWVFGQGTKVEIKGGSGGSQVQLVQSGAEVKKPGSSVKVSCKASGGTFSSYAISWVRQAPGQGLEWMGGIYPIFGSANYAQKFQGRVTITADESTSTAYMELSSLRSEDTAVYYCAREYYYDSSEWAFDIWGQGTLVTVSSGGSGQSVLTQPPSASGTPGQRVTISCSGSSSNIGSNIVNWYQQLPGTAPKLLIYSNNQRPSGVPDRFSGSKSGTSASLAISGLQSEDEADYYCAAWDDSLKGYVFGGGTKLTVLGGSGGSEVQLVESGGGLVQPGGSLRLSCAASGFTFSTYAMNWVRQAPGKGLEWVGRIRSKYNNYATYYADSVKDRFTISRDDSKNSLYLQMNSLKTEDTAVYYCARHGNFGNSYVSYFAYWGQGTLVTVSSAAAGSHHHHHH
notes: Non-covalent homodimer
- CD69 Induction EC50 (human CD3 [1]): 225 pM
- T cell Proliferation in PBMC EC50 (human CD3 [1]): 500 pM
- Kd (human CD33 [2]): 9.7 nM
- Kd (human CD33 [3]): 80.2 nM
- Kd (human CD33 [4]): 9.7 nM
- EC50 on HL-60 (cytotoxicity) (human CD33 [5]): 7.6 pM
- KD ratio cynoCD33/huCD33 (cynomolgus CD33): 0.9
- Kd (human CD33 [6]): 25.1 nM
- Kd (human CD3 [7]): 2.1 nM
- Kd (human CD3 [8]): 2.1 nM

B2: CD33/CD3 2×2 T-cell engager 22 (bispecific antibody)
chain: B1 chain with A149G, Y168I, N175H, I275T, N277K, P298S, T312S, K339N
notes: Non-covalent homodimer
- CD25 Induction EC50 (human CD3 [1]): 10 pM
- CD69 Induction EC50 (human CD3 [1]): 4 pM
- T cell Proliferation in PBMC EC50 (human CD3 [1]): 7 pM
- Kd (human CD33 [2]): 0.7 nM
- Kd (human CD33 [3]): 8.6 nM
- Kd (human CD33 [4]): 0.7 nM
- EC50 on HL-60 (cytotoxicity) (human CD33 [5]): 3.2 pM
- KD ratio cynoCD33/huCD33 (cynomolgus CD33): 0.6
- Kd (human CD33 [6]): 2 nM
- Kd (human CD3 [7]): 4.1 nM
- Kd (human CD3 [8]): 4.1 nM

B4: CD33/CD3 2×2 T-cell engager 17 (bispecific antibody)
chain: DIQMTQSPSSLSASVGDRVTITCRSSTGAVTTSNYANWVQQKPGKAPKALIGGTNKRAPGVPSRFSGSLIGDKATLTISSLQPEDFATYYCALWYSNLWVFGQGTKVEIKGGSGGSQVQLVQSGAEVKKPGESLKISCKGSGYSFTSYWIGWVRQMPGKGLEWMGIIYPGDSDTRYSPSFQGQVTISADKSISTAYLQWSSLKASDTAMYYCARHKRGSDAFDIWGQGTTVTVSSGGSGQSVLTQPPSVSGAPGQRVTISCTGSSSNIGAGYDVHWYQQLPGTAPKLLIYGNSNRPSGVPDRFSGSKSGTSASLAITGLQAEDEADYYCQSYDSSLSDVVFGGGTKLTVLGGSGGSEVQLVESGGGLVQPGGSLRLSCAASGFTFSTYAMNWVRQAPGKGLEWVGRIRSKYNNYATYYADSVKDRFTISRDDSKNSLYLQMNSLKTEDTAVYYCARHGNFGNSYVSYFAYWGQGTLVTVSSAAAGSHHHHHH
notes: Non-covalent homodimer
- CD25 Induction EC50 (human CD3 [1]): 30 pM
- CD69 Induction EC50 (human CD3 [1]): 114 pM
- T cell Proliferation in PBMC EC50 (human CD3 [1]): 30 pM
- Kd (human CD33 [2]): 5 nM
- Kd (human CD33 [3]): 24.4 nM
- Kd (human CD33 [4]): 5 nM
- EC50 on HL-60 (cytotoxicity) (human CD33 [5]): 18.4 pM
- KD ratio cynoCD33/huCD33 (cynomolgus CD33): 1.9
- Kd (human CD33 [6]): 52.5 nM
- Kd (human CD3 [7]): 3.3 nM
- Kd (human CD3 [8]): 3.3 nM

The remaining binders from weak to strong by Kd (human CD33 [2]), led by results:

- CD25 Induction EC50 (human CD3 [1]): 9 pM
- CD69 Induction EC50 (human CD3 [1]): 5 pM
- T cell Proliferation in PBMC EC50 (human CD3 [1]): 6 pM
- Kd (human CD33 [2]): 2.8 nM
- Kd (human CD33 [3]): 5.4 nM
- IC50, lysis of KG-1 cells with human T cells (human CD33 [9]): ~5 pM
- Kd (human CD33 [4]): 2.8 nM
- KD ratio cynoCD33/huCD33 (cynomolgus CD33): 37.3
- Kd (human CD33 [6]): 3.6 nM
- Kd (human CD3 [7]): 6.3 nM
- Kd (human CD3 [8]): 6.3 nM
B3: CD33/CD3 2×2 T-cell engager 19 (bispecific antibody)
chain: DIQMTQSPSSLSASVGDRVTITCRSSTGAVTTSNYANWVQQKPGKAPKALIGGTNKRAPGVPSRFSGSLIGDKATLTISSLQPEDFATYYCALWYSNLWVFGQGTKVEIKGGSGGSQVQLVQSGAEVKKPGASVKVSCKASGYTFTSYYMHWVRQAPGQGLEWMGIINPSGGSTSYAQKFQGRVTMTRDTSTSTVYMELSSLRSEDTAVYYCARDVVPAAIDYYGMDVWGQGTTVTVSSGGSGQSVLTQPPSASGTPGQRVTISCSGSSSNIGSNTVNWYQQLPGTAPKLLIYSDNQRPSGVPDRFSGSKSGSSASLAISGLQSDDEADYYCATWDDSLNGAVFGGGTKLTVLGGSGGSEVQLVESGGGLVQPGGSLRLSCAASGFTFSTYAMNWVRQAPGKGLEWVGRIRSKYNNYATYYADSVKDRFTISRDDSKNSLYLQMNSLKTEDTAVYYCARHGNFGNSYVSYFAYWGQGTLVTVSSAAAGSHHHHHH
notes: Non-covalent homodimer
- EC50 on HL-60 (cytotoxicity) (human CD33 [5]): 5.7 pM

- CD25 Induction EC50 (human CD3 [1]): 6 pM
- CD69 Induction EC50 (human CD3 [1]): 3 pM
- T cell Proliferation in PBMC EC50 (human CD3 [1]): 2 pM
- Kd (human CD33 [2]): 0.3 nM
- Kd (human CD33 [3]): 0.5 nM
- IC50, lysis of KG-1 cells with human T cells (human CD33 [9]): ~0.01 pM
- Kd (human CD33 [4]): 0.3 nM
- Kd (human CD33 [6]): 0.9 nM
- Kd (human CD3 [7]): 1.5 nM
- EC50 (mean), redirected lysis of BV-173 cells (human CD33 [11]): 1.4 pM
- EC50 (mean), redirected lysis of CHO-CD33 cells (human CD33 [11]): 11.8 pM
- EC50 (mean), redirected lysis of HL-60 cells (human CD33 [11]): 1.4 pM
- EC50 (mean), redirected lysis of K562 cells (human CD33 [11]): 4.5 pM
- EC50 (mean), redirected lysis of KASUMI-1 cells (human CD33 [11]): 1.3 pM
- EC50 (mean), redirected lysis of KG-1 cells (human CD33 [11]): 1 pM
- EC50 (mean), redirected lysis of RPMI-8226 cells (human CD33 [11]): 14 pM
- EC50 (mean), redirected lysis of THP-1 cells (human CD33 [11]): 1.9 pM
- EC50 (mean), redirected lysis of U-937 cells (human CD33 [11]): 0.9 pM
- Kd (human CD3 [8]): 1.5 nM
B5: CD33/CD3 2×2 T-cell engager 12 (bispecific antibody)
chain: DIQMTQSPSSLSASVGDRVTITCRSSTGAVTTSNYANWVQQKPGKAPKALIGGTNKRAPGVPSRFSGSLIGDKATLTISSLQPEDFATYYCALWYSNLWVFGQGTKVEIKGGSGGSQVQLVQSGAEVKKPGASVKVSCKASGYTFTSYDINWVRQAPGQGLEWMGWMNPNSGNTGFAQKFQGRVTMTRDTSTSTVYMELSSLRSEDTAVYYCARDRAVTDYYYGMDVWGQGTLVTVSSGGSGQSVLTQPPSASGTPGQRVTISCSGSRSNIGSNTVNWYQQLPGTAPKLLIYGNNQRPSGVPDRFSGSKSGTSASLAISGLQSEDEADYYCATWDDSLIGWVFGGGTKLTVLGGSGGSEVQLVESGGGLVQPGGSLRLSCAASGFTFSTYAMNWVRQAPGKGLEWVGRIRSKYNNYATYYADSVKDRFTISRDDSKNSLYLQMNSLKTEDTAVYYCARHGNFGNSYVSYFAYWGQGTLVTVSSAAAGSHHHHHH
notes: Non-covalent homodimer; also called tandom diabody 12
- EC50, cytotoxicity on HL-60 (human CD33 [10]): 1.3 pM and 137 pg/mL
- EC50, cytotoxicity on KG-1 (human CD33 [10]): 1.2 pM and 126 pg/mL
- EC50, cytotoxicity on U-937 (human CD33 [10]): 0.8 pM and 84 pg/mL
- EC50, cytotoxicity, mean of HL-60, U-937, KG-1 (human CD33 [10]): 1.1 pM and 116 pg/mL
- EC50 on HL-60 (cytotoxicity) (human CD33 [5]): 1.3 pM
